Test results: PMC10063552

Assays:
Assay in all cases: enzyme inhibition assay (cleavage of a chromogenic substrate, fit to Morrison's tight binding equation); MMP-2ACT (0.6 nM), MMP-9CAT (3 nM) or MMP-14CAT (1 nM) incubated with 0-25 nM N-TIMP2 variant in 50 mM HEPES, 10 mM CaCl2, 0.05% Brij-35, 1 mM DTNB, pH 7.5, 1 h at 37 °C; then 100 µM chromogenic substrate, absorbance at 412 nm at 37 °C; Ki from three independent experiments
[1] = molecular target: human MMP-9 catalytic domain (MMP-9CAT) (human) (UniProt P14780)
[2] = molecular target: human MMP-14 catalytic domain (MMP-14CAT) (human) (UniProt P50281)
[3] = molecular target: activated MMP-2 (MMP-2ACT) (human)

N-TIMP2-S69HqAla (from UniProt P16035 27-153) (domain or fragment)
Ki [1]: 0.449 nM
Ki [2]: 11.5 nM
Ki [3]: 0.606 nM

N-TIMP2-L100DOPA (from UniProt P16035 27-153) (domain or fragment)
Ki [1]: 0.849 nM
Ki [2]: 14.2 nM
Ki [3]: 1 nM

N-TIMP2-S2HqAla (from UniProt P16035 27-153) (domain or fragment)
Ki [1]: 70.4 nM
Ki [2]: 97.7 nM
Ki [3]: 97.7 nM

N-TIMP2-S2DOPA (from UniProt P16035 27-153) (domain or fragment)
Ki [1]: 0.623 nM
Ki [2]: 14.6 nM
Ki [3]: 3.14 nM

N-TIMP2-A70DOPA (from UniProt P16035 27-153) (domain or fragment)
Ki [1]: 0.452 nM
Ki [2]: 10.6 nM
Ki [3]: 0.785 nM

N-TIMP2-Y36HqAla (from UniProt P16035 27-153) (domain or fragment)
Ki [1]: 0.543 nM
Ki [2]: 4.72 nM
Ki [3]: 0.413 nM

N-TIMP2-A70HqAla (from UniProt P16035 27-153) (domain or fragment)
Ki [1]: 1.93 nM
Ki [2]: 27.2 nM
Ki [3]: 16.7 nM

N-TIMP2-S69DOPA (from UniProt P16035 27-153) (domain or fragment)
Ki [1]: 0.468 nM
Ki [2]: 21.4 nM
Ki [3]: 0.46 nM
